The target in test [1] is CD95(1–66)-mCherry (human). The test can be described thus: SEC; concentrated serum-free supernatants of transfected HEK cells on Sephacryl S-300 and S-200 High Resolution columns in PBS, 0.5 mL/min; fractions analysed by immunoblot with anti-DsRed. In general terms: In gel filtration, larger molecules generally elute earlier.
Test [2] concerns the target CD95(1–158)-mCherry (human). Described as above.

As a reminder, the stoichiometry N is a count of units in the complex or per binding partner. CD95(1–66)-mCherry (domain or fragment) gave a stoichiometry N in test [1] of 2.

“CD95(1–158)-mCherry (domain or fragment)” yielded a stoichiometry N in test [2] of 3.

The values above are taken from article PMC3457997.
